# Laboratory results: paper PMC8909805, “Anticancer Activity of (S)-5-Chloro-3-((3,5-dimethylphenyl)sulfonyl)-N-(1-oxo-1-((pyridin-4-ylmethyl)amino)propan-2-yl)-1H-indole-2-carboxamide (RS4690), a New Dishevelled 1 Inhibitor” (Cancers, 2022)
# T1: DVL1 binding to FZD4 (Homo sapiens, UniProt O14640)
# T1 construct: host or cells: HEK293
# T1 sequence (O14640 1-695): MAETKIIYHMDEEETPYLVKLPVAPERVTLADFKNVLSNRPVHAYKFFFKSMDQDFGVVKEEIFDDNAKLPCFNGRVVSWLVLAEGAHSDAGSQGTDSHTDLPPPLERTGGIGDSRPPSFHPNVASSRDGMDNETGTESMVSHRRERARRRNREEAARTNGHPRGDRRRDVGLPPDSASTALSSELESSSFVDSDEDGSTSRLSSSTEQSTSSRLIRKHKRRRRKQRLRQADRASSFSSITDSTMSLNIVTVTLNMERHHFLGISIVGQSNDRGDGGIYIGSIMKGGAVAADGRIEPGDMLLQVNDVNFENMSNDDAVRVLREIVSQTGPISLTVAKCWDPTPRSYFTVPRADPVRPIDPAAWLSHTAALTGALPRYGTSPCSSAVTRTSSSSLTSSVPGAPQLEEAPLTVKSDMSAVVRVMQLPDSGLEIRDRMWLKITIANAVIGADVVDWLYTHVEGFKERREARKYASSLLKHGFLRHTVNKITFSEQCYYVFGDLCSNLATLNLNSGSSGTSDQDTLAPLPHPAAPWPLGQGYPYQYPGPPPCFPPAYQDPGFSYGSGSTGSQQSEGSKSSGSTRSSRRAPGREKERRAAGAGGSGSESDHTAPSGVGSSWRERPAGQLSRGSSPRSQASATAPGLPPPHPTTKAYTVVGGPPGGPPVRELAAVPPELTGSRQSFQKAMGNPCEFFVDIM
# B1: GFP-tagged DVL-1 (natural protein)
# chain: T1 sequence (O14640 1-695)
# How the values were obtained:
# DVL1 binding to FZD4 = biological target: T1, DVL1 binding to FZD4; test: Inhibition of DVL1 (DVL-GFP) recruitment by FZD4 at the plasma membrane of HEK293 cells; type: cell-based; conditions: HEK293 cells co-transfected with HA-FZD4 and GFP-DVL-1; 24 h treatment; read-out: EC50 ± SD DVL1 Binding Inhibition
# Protocol: HEK293 cells were seeded in 96-well tissue culture plates at a density of 5 × 10 ^3/well. After 16–24 h seeding, cells were co-transfected with HA-FZD4-wt (0.04 µg/well) and GFP-tagged DVL-1 (0.04 µg/well) using PEI (0.25 µL/well) in a final volume of 100 µL/well. After 24 h of transfection, the medium was replaced and supplemented with the indicated compounds diluted in culture medium. After 24 h of treatment, cells were fixed in 3.7% formaldehyde freshly diluted in PBS for 30 min at RT, quenched with 0.1 M glycine/PBS for 30 min at RT, and washed with PBS. Samples were observed under a Leica confocal fluorescent microscope. Inhibition of DVL recruitment was measured by counting the percentage of cells losing GFP-DVL-1 localization on the PM. Experiments were performed in triplicate, and the standard deviations are indicated.
# The crucial role played by PDZ domains in the spreading of cellular signals and their aberrant activations in many human diseases makes the PDZ domains very attractive targets for drug discovery. […] To identify new DVL1 inhibitors, we followed a virtual screening approach by fixing as the main filter a pharmacophoric model. We speculated that compound 2, the recently reported inhibitor of NHERF1 PDZ1 domain [26], may be able also to bind the DVL PDZ domain. The activity of compound 2 was assayed in HEK293 cells transiently expressing both HA-tagged-FZD4 (HA-FZD4) and the chimeric construct DVL-GFP. In the absence of HA-FZD4, DVL-GFP is localized in punctate intracellular structures known as signalosomes. In the presence of FZD-4 expression, DVL-GFP is recruited on the PM of the cell showing a drastic change in localization. As previously reported, drugs acting as inhibitors of FZD4/DVL binding reduce the amount of DVL-GFP recruited on the PM. […] Thus, we used the information gained from the binding mode of compound 2 to design a pharmacophore model that would lead to the identification of new DVL1 PDZ binders. At the same time, to better distinguish between the inhibitory activities of DVL1 and NHERF1, we added a new query to the pharmacophore model. Actually, comparing the PDZ structures of the studied proteins, we identified a significant difference. The upper part of the carboxylic binding loop was delimited by Tyr24, Ile79 and Val86 for NHERF1, while we observed Leu12, Val75 and Ile81, respectively, for DVL1. […] This peculiar feature of the DVL1 PDZ was included in our pharmacophore model by adding a hydrophobic query to obtain the required selectivity (Figure S1, Supplementary Materials). […] Thus, for each molecule, we obtained 10 conformations, and all of the proposed binding poses (7000 molecules per 10 conformations) were scored by the fitting to the pharmacophore model. […]
# HA-tagged FZD4wt (human) = HA-tagged FZD4wt (human) (UniProt Q9ULV1)
# Chain of HA-tagged FZD4wt (human) (Q9ULV1 37-537): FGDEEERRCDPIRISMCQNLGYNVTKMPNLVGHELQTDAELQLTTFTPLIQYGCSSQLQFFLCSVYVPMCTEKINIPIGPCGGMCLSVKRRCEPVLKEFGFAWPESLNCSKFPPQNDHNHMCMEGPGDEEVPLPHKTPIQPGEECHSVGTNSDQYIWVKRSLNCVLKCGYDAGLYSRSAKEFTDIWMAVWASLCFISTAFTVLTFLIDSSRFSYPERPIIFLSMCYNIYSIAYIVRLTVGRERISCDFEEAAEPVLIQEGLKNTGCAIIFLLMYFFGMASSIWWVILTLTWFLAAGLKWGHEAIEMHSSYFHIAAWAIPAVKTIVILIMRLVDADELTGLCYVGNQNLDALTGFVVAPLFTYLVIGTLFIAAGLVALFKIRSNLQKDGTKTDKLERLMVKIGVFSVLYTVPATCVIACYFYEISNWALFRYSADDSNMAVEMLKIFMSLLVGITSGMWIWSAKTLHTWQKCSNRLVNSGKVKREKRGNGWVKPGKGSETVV
Molecule,EC50 (DVL1 binding to FZD4),EC50 of the small molecule 2 for inhibition of GFP-DVL-1 recruitment to the plasma membrane by HA-FZD4 in HEK293 cells (percentage of cells losing PM localisation; 'DVL1 Binding Inhibition') (HA-tagged FZD4wt (human)),EC50 of the small molecule (R)-1 for inhibition of GFP-DVL-1 recruitment to the plasma membrane by HA-FZD4 in HEK293 cells (percentage of cells losing PM localisation; 'DVL1 Binding Inhibition') (HA-tagged FZD4wt (human)),EC50 of the small molecule (S)-1 for inhibition of GFP-DVL-1 recruitment to the plasma membrane by HA-FZD4 in HEK293 cells (percentage of cells losing PM localisation; 'DVL1 Binding Inhibition') (HA-tagged FZD4wt (human))
"O=C(Nc1ccc(CO)cc1)c1[nH]c2ccc(Cl)cc2c1Cc1ccccc1 [Compound 2, 3-benzyl-5-chloro-N-(4-(hydroxymethyl)phenyl)-1H-indole-2-carboxamide, reference compound]",5.1 ± 0.09 µM,–,–,–
B1,–,5.1 µM,29.5 µM,0.49 µM
